In the supplement of paper PMC9233669:
This sample holds only a part of the variants without activity.

What was measured:
biotinyl-Phe-oxazolone = assay: self-aminoacylation, catalytic enhancement (BFO) (fold over background); higher = more active; k-Seq, kA / k0A0; sequences stand for … in GGGAAUGGAUCCACAUCUACGAAUUC…UUCACUGCAGACUUGACGAAGCUG
Method in brief: (§1)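 The uncatalyzed rate is the low-activity peak of a bimodal Gaussian fit, and catalytic enhancement is median kA divided by it. The kA values came from pseudo-first-order fits, with 1000 bootstraps, of per-sequence fraction reacted measured by streptavidin capture, triplicate qPCR and Illumina sequencing. Mutagenized RNA pools with a 21-nt variable region (0.43 μM) were reacted with each biotinyl-aminoacyl-oxazolone at 2–1250 μM in 50 μL HEPES/NaCl/KCl/MgCl2/CaCl2 buffer with 5% acetonitrile, pH 6.9–7.0, for 90 minutes at room temperature.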

biotinyl-Leu-oxazolone = assay: self-aminoacylation, catalytic enhancement (BLO) (fold over background); higher = more active; k-Seq, kA / k0A0; sequences stand for … in GGGAAUGGAUCCACAUCUACGAAUUC…UUCACUGCAGACUUGACGAAGCUG
Method in brief: as §1

biotinyl-Trp-oxazolone = assay: self-aminoacylation, catalytic enhancement (BWO) (fold over background); higher = more active; k-Seq, kA / k0A0; sequences stand for … in GGGAAUGGAUCCACAUCUACGAAUUC…UUCACUGCAGACUUGACGAAGCUG
Method in brief: as §1

biotinyl-Ile-oxazolone = assay: self-aminoacylation, catalytic enhancement (BIO) (fold over background); higher = more active; k-Seq, kA / k0A0; sequences stand for … in GGGAAUGGAUCCACAUCUACGAAUUC…UUCACUGCAGACUUGACGAAGCUG
Method in brief: as §1

biotinyl-Met-oxazolone = assay: self-aminoacylation, catalytic enhancement (BMO) (fold over background); higher = more active; k-Seq, kA / k0A0; sequences stand for … in GGGAAUGGAUCCACAUCUACGAAUUC…UUCACUGCAGACUUGACGAAGCUG
Method in brief: as §1

biotinyl-Val-oxazolone = assay: self-aminoacylation, catalytic enhancement (BVO) (fold over background); higher = more active; k-Seq, kA / k0A0; sequences stand for … in GGGAAUGGAUCCACAUCUACGAAUUC…UUCACUGCAGACUUGACGAAGCUG
Method in brief: as §1

| Sequence | self-aminoacylation (biotinyl-Phe-oxazolone) | self-aminoacylation (biotinyl-Leu-oxazolone) | self-aminoacylation (biotinyl-Trp-oxazolone) | self-aminoacylation (biotinyl-Ile-oxazolone) | self-aminoacylation (biotinyl-Met-oxazolone) | self-aminoacylation (biotinyl-Val-oxazolone) |
| --- | --- | --- | --- | --- | --- | --- |
| CUUCACCUCGGUCAUCGGGUG [Fam2.2 aminoacylation ribozyme variant] | 44.6 | 5.57 | 5.07 | 3.54 | 5.17 | 4.37 |
| CUUCACCUUGGUCAUCGGGUG [Fam2.2 aminoacylation ribozyme variant] | 45.5 | 5.93 | 5.5 | 3.13 | 5.39 | 4.27 |
| CUUCUCCAAACAAUCGGUCUG [Fam1A.1 aminoacylation ribozyme variant] | 1.26 | 0.723 | 0.962 | 0.67 | 0.772 | 0.831 |
| CUUCUUCAAACAAUCGAUCUG [Fam1A.1 aminoacylation ribozyme variant] | 1.98 | 0.597 | 0.841 | 0.624 | 0.672 | 0.647 |
| CUUCUUCAAACAAUCGGACUG [Fam1A.1 aminoacylation ribozyme variant] | 7.56 | 0.698 | 3.43 | 0.822 | 0.652 | 0.677 |
| CUUCUUCAAACAAUCGGGCUG [Fam1A.1 aminoacylation ribozyme variant] | 5.81 | 1.43 | 4.55 | 1.29 | 1.25 | 1.06 |
| CUUCUUCAAACAUUCGGUCUG [Fam1A.1 aminoacylation ribozyme variant] | 1.05 | 1.26 | 1.39 | 1.03 | 1.15 | 1.23 |
| CUUCUUCAAAGAAUCGGUCUG [Fam1A.1 aminoacylation ribozyme variant] | 3.04 | 1.07 | 2.95 | 0.956 | 1.05 | 0.889 |
| CUUCUUCGAACAAUCGGUCUG [Fam1A.1 aminoacylation ribozyme variant] | 0.708 | 0.706 | 0.443 | 0.627 | 0.768 | 0.743 |
| CUUCUUCUAACAAUCGGUCUG [Fam1A.1 aminoacylation ribozyme variant] | 0.727 | 0.571 | 0.581 | 0.732 | 0.623 | 0.729 |
| GAAUUUGCUAAUAGUCGCAAG [Fam3.1 aminoacylation ribozyme variant] | 2.52 | 1.38 | 1.79 | 1.81 | 1.51 | 1.53 |
| GAGUGUGCUAAUAGUCGCAAG [Fam3.1 aminoacylation ribozyme variant] | 9.21 | 1.36 | 3.11 | 1.77 | 1.51 | 1.57 |
| GAGUUUGCAAAUAGUCGCAAG [Fam3.1 aminoacylation ribozyme variant] | 1.83 | 1.02 | 0.87 | 1.22 | 0.838 | 0.746 |
| GAGUUUGCUAAUACUCGCAAG [Fam3.1 aminoacylation ribozyme variant] | 1.09 | 1.01 | 1.12 | 1.03 | 0.939 | 1.07 |
| GAGUUUGCUAAUAGUCCCAAG [Fam3.1 aminoacylation ribozyme variant] | 4.57 | 0.812 | 1.64 | 1.05 | 1.33 | 1.1 |
| GAGUUUGCUAAUAGUCGCAAC [Fam3.1 aminoacylation ribozyme variant] | 1.19 | 0.998 | 1.2 | 1.4 | 1.31 | 1.19 |
| GAGUUUGCUAAUAGUCGCAUG [Fam3.1 aminoacylation ribozyme variant] | 2.24 | 1.25 | 1.17 | 1.59 | 1.59 | 1.44 |
| GAGUUUGCUAAUAGUCGCCAG [Fam3.1 aminoacylation ribozyme variant] | 2.04 | 1.47 | 2.6 | 2.51 | 2.45 | 1.69 |
| GAGUUUGCUAAUAGUCUCAAG [Fam3.1 aminoacylation ribozyme variant] | 6.85 | 0.855 | 2.43 | 1.32 | 0.852 | 1.08 |
| GAGUUUGCUAAUAUUCGCAAG [Fam3.1 aminoacylation ribozyme variant] | 1.73 | 1.46 | 1.62 | 2.04 | 1.45 | 1.36 |
| GAGUUUGCUAAUGGUCGCAAG [Fam3.1 aminoacylation ribozyme variant] | 2.82 | 0.903 | 1.16 | 0.99 | 0.779 | 1.02 |
| GAGUUUGGUAAUAGUCGCAAG [Fam3.1 aminoacylation ribozyme variant] | 3.41 | 1.73 | 2.36 | 1.94 | 1.75 | 1.55 |
| GAUCACCUAGGUCAUCGGGUG [Fam2.2 aminoacylation ribozyme variant] | 17.2 | 3.71 | 5.58 | 3.45 | 3.44 | 3.54 |
| GAUUUUGCUAAUAGUCGCAAG [Fam3.1 aminoacylation ribozyme variant] | 2.53 | 1.82 | 2.99 | 1.99 | 2.2 | 1.83 |
| GCACAAUUCAAGCAAUCGGUC [Fam1B.1 aminoacylation ribozyme variant] | 3.04 | 1.79 | 3.3 | 2.1 | 1.81 | 1.94 |
